Substitutions are numbered along the chain they refer to.
T1: human FcγRIIB (NM_004001) expressed on cells (human, UniProt P31994 43-310)
T1 sequence: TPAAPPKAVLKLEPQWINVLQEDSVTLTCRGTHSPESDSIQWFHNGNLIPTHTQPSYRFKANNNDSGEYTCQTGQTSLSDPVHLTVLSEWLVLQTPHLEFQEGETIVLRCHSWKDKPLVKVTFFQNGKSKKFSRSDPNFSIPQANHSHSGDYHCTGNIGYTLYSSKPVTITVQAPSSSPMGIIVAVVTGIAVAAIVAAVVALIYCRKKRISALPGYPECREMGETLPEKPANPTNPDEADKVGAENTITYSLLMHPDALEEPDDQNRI

T2: human FcγRIIA (NM_021642) expressed on cells (human, UniProt P12318 36-317)
T2 sequence: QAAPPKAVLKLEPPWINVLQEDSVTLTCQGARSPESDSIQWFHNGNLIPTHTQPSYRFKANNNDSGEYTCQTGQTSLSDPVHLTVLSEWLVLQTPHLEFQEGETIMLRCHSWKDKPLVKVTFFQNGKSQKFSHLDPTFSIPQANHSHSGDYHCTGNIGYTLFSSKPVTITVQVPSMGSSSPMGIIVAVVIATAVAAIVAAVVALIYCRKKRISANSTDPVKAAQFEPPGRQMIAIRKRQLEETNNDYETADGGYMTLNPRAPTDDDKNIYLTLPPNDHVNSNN

T3: human OX40 expressed on HEK-Blue: OX40 cells (human, UniProt P43489 29-277)
T3 construct: also called CD134
T3 sequence: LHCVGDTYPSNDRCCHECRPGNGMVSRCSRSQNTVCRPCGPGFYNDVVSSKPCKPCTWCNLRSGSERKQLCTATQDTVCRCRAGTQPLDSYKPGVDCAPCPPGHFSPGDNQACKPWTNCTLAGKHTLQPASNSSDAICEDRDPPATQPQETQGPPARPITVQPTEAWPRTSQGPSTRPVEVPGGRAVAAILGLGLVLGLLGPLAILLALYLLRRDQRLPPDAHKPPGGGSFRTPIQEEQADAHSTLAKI

B1: OX40SF2IgG2sigma_R2BS12_HC-C (bispecific antibody)
heavy: QVQLVQSGAEVKKPGSSVKVSCKASGYTFKDYTMHWVRQAPGQGLEWIGGIYPNNGGSTYNQNFKDRVTLTADKSTSTAYMELSSLRSEDTAVYYCARMGYHGPHLDFDVWGQGTTVTVSSASTKGPSVFPLAPCSRSTSESTAALGCLVKDYFPEPVTVSWNSGALTSGVHTFPAVLQSSGLYSLSSVVTVPSSNFGTQTYTCNVDHKPSNTKVDKTVERKCCVECPPCPAPPAAASSVFLFPPKPKDTLMISRTPEVTCVVVDVSAEDPEVQFNWYVDGVEVHNAKTKPREEQFNSTFRVVSVLTVLHQDWLNGKEYKCKVSNKGLPSSIEKTISKTKGQPREPQVYTLPPSREEMTKNQVSLTCLVKGFYPSDIAVEWESNGQPENNYKTTPPMLDSDGSFFLYSKLTVDKSRWQQGNVFSCSVMHEALHNHYTQKSLSLSPGKGGGGGSGGGGSGGGGSGGGGSLPAPKNLVVSRVTEDSARLSWTAPDAAFDSFLIAYAEYWEGGEAVVLTVPGSERSYDLTGLKPGTEYFVQINGVKGGFWSIPLSAIFTT
light: DIQMTQSPSSLSASVGDRVTITCKASQDVGAAVAWYQQKPGKAPKLLIYWASTRHTGVPSRFSGSGSGTDFTLTISSLQPEDFATYYCQQYINYPLTFGGGTKVEIKRTVAAPSVFIFPPSDEQLKSGTASVVCLLNNFYPREAKVQWKVDNALQSGNSQESVTEQDSKDSTYSLSSTLTLSKADYEKHKVYACEVTHQGLSSPVTKSFNRGEC
notes: mAbtyrin: anti-OX40 antibody OX40SF2, effector silent IgG2sigma, with linker and R2BS12 FN3 domain at the C-terminus of the heavy chain; also called mAbtyrin
B2: OX40SF2IgG2sigma_R2BS56_HC-C (bispecific antibody)
heavy: B1 heavy with L500S, A504W, W507R, E508K, V513I, Q538L, N540Y, F546W, W547Q, I549K
light: B1 light
notes: mAbtyrin: anti-OX40 antibody OX40SF2, effector silent IgG2sigma, with linker and R2BS56 FN3 domain at the C-terminus of the heavy chain; also called mAbtyrin
B3: OX40SF2IgG2sigma_R2BS39_HC-C (bispecific antibody)
heavy: QVQLVQSGAEVKKPGSSVKVSCKASGYTFKDYTMHWVRQAPGQGLEWIGGIYPNNGGSTYNQNFKDRVTLTADKSTSTAYMELSSLRSEDTAVYYCARMGYHGPHLDFDVWGQGTTVTVSSASTKGPSVFPLAPCSRSTSESTAALGCLVKDYFPEPVTVSWNSGALTSGVHTFPAVLQSSGLYSLSSVVTVPSSNFGTQTYTCNVDHKPSNTKVDKTVERKCCVECPPCPAPPAAASSVFLFPPKPKDTLMISRTPEVTCVVVDVSAEDPEVQFNWYVDGVEVHNAKTKPREEQFNSTFRVVSVLTVLHQDWLNGKEYKCKVSNKGLPSSIEKTISKTKGQPREPQVYTLPPSREEMTKNQVSLTCLVKGFYPSDIAVEWESNGQPENNYKTTPPMLDSDGSFFLYSKLTVDKSRWQQGNVFSCSVMHEALHNHYTQKSLSLSPGKGGGGGSGGGGSGGGGSGGGGSLPAPKNLVVSRVTEDSARLSWTAPDAAFDSFLIQYQESEKVGEAIVLTVPGSERSYDLTGLKPGTEYTVSIYGVSHGPWYNYGEWRSNPLSAIFTT
light: B1 light
notes: mAbtyrin: anti-OX40 antibody OX40SF2, effector silent IgG2sigma, with linker and R2BS39 FN3 domain at the C-terminus of the heavy chain; also called mAbtyrin
B4: OX40SF2IgG2sigma_R2BS6_HC-C (bispecific antibody)
heavy: QVQLVQSGAEVKKPGSSVKVSCKASGYTFKDYTMHWVRQAPGQGLEWIGGIYPNNGGSTYNQNFKDRVTLTADKSTSTAYMELSSLRSEDTAVYYCARMGYHGPHLDFDVWGQGTTVTVSSASTKGPSVFPLAPCSRSTSESTAALGCLVKDYFPEPVTVSWNSGALTSGVHTFPAVLQSSGLYSLSSVVTVPSSNFGTQTYTCNVDHKPSNTKVDKTVERKCCVECPPCPAPPAAASSVFLFPPKPKDTLMISRTPEVTCVVVDVSAEDPEVQFNWYVDGVEVHNAKTKPREEQFNSTFRVVSVLTVLHQDWLNGKEYKCKVSNKGLPSSIEKTISKTKGQPREPQVYTLPPSREEMTKNQVSLTCLVKGFYPSDIAVEWESNGQPENNYKTTPPMLDSDGSFFLYSKLTVDKSRWQQGNVFSCSVMHEALHNHYTQKSLSLSPGKGGGGGSGGGGSGGGGSGGGGSLPAPKNLVVSRVTEDSARLSWTAPDAAFDSFLIQYQESEKVGEAIVLTVPGSERSYDLTGLKPGTEYTVSIYGVQYAAWYLPRHHEASNPLSAIFTT
light: B1 light
notes: mAbtyrin: anti-OX40 antibody OX40SF2, effector silent IgG2sigma, with linker and R2BS6 FN3 domain at the C-terminus of the heavy chain; also called mAbtyrin

Target: T1, human FcγRIIB (NM_004001) expressed on …
Experiment: cell-based or functional assay

Q: What does the source list for B1?
A: % activity at 1 µg/ml with Raji cells (HEK-Blue: OX40 NF-κB reporter, relative to 1 µg/ml OX40 ligand): 96.3%; fold of agonism enhancement upon crosslinking (Raji cells): 31 fold

Q: B2 was tested. Which “% activity at 1 µg/ml with Raji cells (HEK-Blue: OX40 NF-κB reporter, relative to 1 µg/ml OX40 ligand)” value did it give?
A: 107%

Q: What about the “fold of agonism enhancement upon crosslinking (Raji cells)” value (“fold … (Raji cells)” below) of the same binder?
A: 15 fold

Q: With B3 as the binder, how does the “% activity at 1 µg/ml with Raji cells (HEK-Blue: OX40 NF-κB reporter, relative to 1 µg/ml OX40 ligand)” value read?
A: 99.5%

Q: And the “fold … (Raji cells)” value?
A: 24 fold

Q: With B4 as the binder, how does the “% activity at 1 µg/ml with Raji cells (HEK-Blue: OX40 NF-κB reporter, relative to 1 µg/ml OX40 ligand)” value read?
A: 83.5%

Q: And the “fold … (Raji cells)” value?
A: 17 fold

Target: T2, human FcγRIIA (NM_021642) expressed on …
Experiment: cell-based or functional assay

Q: With B1 as the binder, how does the “% OX40 cell killed by macrophages (ADCP, 1 µg/ml)” value (“% OX40 cell killed by macrophages” for short) read?
A: 92%

Q: Which “% OX40 cell killed by macrophages” value does the source give for B2 here?
A: 91%

Q: With B3 as the binder, how does the “% OX40 cell killed by macrophages” value read?
A: 83%

Q: For B4, which “% OX40 cell killed by macrophages” value is on record?
A: 82%

Target: T3, human OX40 expressed on HEK-Blue: OX40 …
Experiment: flow cytometry; HEK-Blue: OX40 cells
Experimental: (§1) 2×10⁵ cells per well were seeded in 96-well plate and blocked in BSA Stain Buffer (BD Biosciences, San Jose, USA) for 30 min at 4° C. Cells were incubated with test mAbtyrin on ice for 1.5 h at 4° C. After being washed twice with BSA stain buffer, the cells were incubated with R-PE labeled anti-human or anti-mouse IgG secondary antibody (Jackson Immunoresearch Laboratories) for 45 min at 4° C. The cells were washed twice in stain buffer and then resuspended in 150 μL of Stain Buffer containing 1:200 diluted DRAQ7 live/dead stain (Cell Signaling Technology, Danvers, USA). PE and DRAQ7 signals of the stained cells were detected by Miltenyi MACSQuant flow cytometer (Miltenyi Biotec, Auburn, USA) using B2 and B4 channel respectively. Live cells were gated on DRAQ7 exclusion and the geometric mean fluorescence signals were determined for at least 10,000 live events collected. FlowJo software (Tree Star) was used for analysis. Data was plotted as the logarithm of antibody concentration versus mean fluorescence signals. Nonlinear regression analysis was performed by GraphPad Prism 6 (GraphPad Software, Inc.) and EC₅₀ values were calculated.
The binding of mAbtyrins on OX40 expressed on cell surface were investigated by flow cytometry assay described for testing mAbtyrin binding to FcγR. A stable HEK-Blue reporter cell line expressing human OX40 (HEK-Blue: OX40) was established by transfection OX40 expression plasmid (pUNO1-hOX40) into HEK-Blue™ Null 1 cells engineered to express a secreted embryonic alkaline phosphatase (SEAP) reporter gene under the control of NF-κB-inducible promoter (IFN-β minimal promoter). mAbtyrins were incubated with HEK-Blue: OX40 cells and the binding was detected by flow cytometry using a PE-labeled Goat F(ab′)₂ against Human IgG(γ).

Q: With B1 as the binder, how does the “Binding to HEK-Blue: OX40 cells (mean signal at 1 µg/ml)” value (“Binding to HEK-Blue: OX40 cells” for short) read?
A: 9710 mean fluorescence signal

Q: Which “Binding to HEK-Blue: OX40 cells” value does the source give for B2 here?
A: 16900 mean fluorescence signal

Q: Which “Binding to HEK-Blue: OX40 cells” value does the source give for B3 here?
A: 9320 mean fluorescence signal

Q: For B4, which “Binding to HEK-Blue: OX40 cells” value is on record?
A: 10400 mean fluorescence signal

Target: T1, human FcγRIIB (NM_004001) expressed on …
Experiment: flow cytometry; Raji cells (express predominantly FcγRIIB)

Q: With B1 as the binder, how does the “fold binding signal over OX40SF2IgG2sigma at 10 µg/mL” value (“fold binding signal” below) read?
A: ≥ 6 fold

Q: Which “fold binding signal” value does the source give for B2 here?
A: ≥ 6 fold

Q: For B3, which “fold binding signal” value is on record?
A: ≥ 6 fold

Q: How did the “fold binding signal” value turn out when B4 was run?
A: ≥ 6 fold

Target: T2, human FcγRIIA (NM_021642) expressed on …
Experiment: flow cytometry; Expi293F cells transfected with FcγRIIA
Experimental: (§2) Plasmids expressing cDNAs encoding human FcγRI (NM_000566) (SEQ ID NO: 44), FcγRIIA (NM_021642) (SEQ ID NO: 2), FcγRIIB (NM_004001) (SEQ ID NO: 3), and FcγRIIIA (NM_000569) (SEQ ID NO: 45) (Origene) were transiently transfected into Expi293F cells by ExpiFectamine293 transfection kit (Life Technologies). Flow cytometry assays were performed 48 h after transfection.
as §1

Q: For B1, which EC50 is on record?
A: 0.302 µg/mL

Q: With B2 as the binder, how does the EC50 read?
A: 0.287 µg/mL

Q: With B3 as the binder, how does the EC50 read?
A: 0.532 µg/mL

Q: With B4 as the binder, how does the EC50 read?
A: 0.7 µg/mL

Target: T1, human FcγRIIB (NM_004001) expressed on …
Experiment: flow cytometry; Expi293F cells transfected with FcγRIIB
Experimental: as §2, §1

Q: How did the EC50 turn out when B1 was run?
A: 0.926 µg/mL

Q: B2 was tested. Which EC50 did it give?
A: 1.05 µg/mL

Q: B3 was tested. Which EC50 did it give?
A: 1.87 µg/mL

Q: For B4, which EC50 is on record?
A: 1.56 µg/mL

Target: T1, human FcγRIIB (NM_004001) expressed on …
Experiment: flow cytometry; Raji cells (express predominantly FcγRIIB)
Remark: another data set of the same source
Experimental: as §1
Raji cell is a cell line derived from B cells that express predominantly FcγRIIB. The binding of mAbtyrins on Raji cells were investigated by flow cytometry assay described for testing mAbtyrin binding to FcγR. Binding of the mAbtyrins were detected by flow cytometry using a PE-labeled Goat F(ab′) against Human IgG(γ).

Q: For B1, which “Binding to Raji cells mean signals at 10 µg/ml” value is on record?
A: 2610 mean fluorescence signal

Q: What about the EC50 of the same binder?
A: > 10 µg/mL

Q: How did the “Binding to Raji cells mean signals at 10 µg/ml” value turn out when B2 was run?
A: 9120 mean fluorescence signal

Q: What about the EC50 of the same binder?
A: 9.91 µg/mL

Q: For B3, which “Binding to Raji cells mean signals at 10 µg/ml” value is on record?
A: 8220 mean fluorescence signal

Q: What about the EC50 of the same binder?
A: > 10 µg/mL

Q: What does the source list for B4?
A: Binding to Raji cells mean signals at 10 µg/ml: 5380 mean fluorescence signal; EC50: > 10 µg/mL

Reference: patent US20190062420A1 (Janssen / Centocor, published 2019)
